In this assay the target is Cladosporium fulvum LysM effector Ecp6 (extracellular protein 6), produced in Pichia pastoris (Cladosporium fulvum) (UniProt B3VBK9). Briefly: SEC. (In general: In gel filtration, larger molecules generally elute earlier.)

This passage reports stoichiometry N results from paper PMC3700227.

“Cladosporium fulvum LysM effector Ecp6 (extracellular protein 6), produced in Pichia pastoris (from UniProt B3VBK9) (natural protein)” had a stoichiometry N of 2.

A word on the stoichiometry N: it is the number of molecules, sites or subunits per partner or assembly.
